Assay results reported in article doi:10.1101/2024.08.06.606809.

Columns and labels:
Assay in all cases: SPR
Protein G variant GD = biological target: Protein G variant GD
Protein G variant GLM = biological target: Protein G variant GLM
Protein G variant GF = biological target: Protein G variant GF
[1] = biological target: Protein G-Fc (Fc specific Protein-G variant)

| Substance | Kd (Protein G variant GD) | Kd (Protein G variant GLM) | Kd (Protein G variant GF) | Kd [1] |
| --- | --- | --- | --- | --- |
| Fab^H, wild-type human (Herceptin) Fab scaffold with a kappa light chain | 6.4 nM | 8.9 nM | 1.9 nM | – |
| human Fc (Fc domain of IgG) (domain or fragment) | – | – | – | 3.8 nM |
